Test results published in patent US20050282743A1, “Molecular interactions in cells” (Arbor Vita Corporation, priority 2001, published 2005).

Key:
Experiment in all cases: G' assay
[1] = biological target: T1, GST-AIPC PDZ domain 1 (Homo sapiens (Human)), O15018
T1 chain: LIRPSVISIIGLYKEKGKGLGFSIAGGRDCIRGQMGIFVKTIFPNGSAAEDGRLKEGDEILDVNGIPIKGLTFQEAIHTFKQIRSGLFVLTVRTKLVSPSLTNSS

[2] = biological target: GST-Atrophin-1 Interacting Protein PDZ domain 3 (Rattus norvegicus (Rat)), O88382
[3] = biological target: GST-Atrophin-1 Interacting Protein PDZ domain 5 (Rattus norvegicus (Rat)), O88382
[4] = biological target: GST-BAI-1 Associated Protein PDZ domain 6 (Homo sapiens (Human)), Q96QZ7
[5] = biological target: T2, GST-FLJ00011 PDZ domain 1 (Homo sapiens (Human)), Q9H5P4
T2 chain: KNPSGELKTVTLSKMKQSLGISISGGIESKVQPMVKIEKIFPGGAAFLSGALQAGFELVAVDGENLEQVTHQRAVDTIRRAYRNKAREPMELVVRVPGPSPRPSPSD

[6] = biological target: T3, GST-INADL PDZ domain 3 (Homo sapiens (Human)), Q8NI35
T3 chain: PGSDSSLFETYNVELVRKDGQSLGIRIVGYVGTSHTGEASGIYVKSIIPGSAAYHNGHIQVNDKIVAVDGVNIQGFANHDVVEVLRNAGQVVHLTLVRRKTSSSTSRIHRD

[7] = biological target: T4, GST-KIAA0807(S) PDZ domain 1 (Homo sapiens (Human)), Q6P0Q8
T4 chain: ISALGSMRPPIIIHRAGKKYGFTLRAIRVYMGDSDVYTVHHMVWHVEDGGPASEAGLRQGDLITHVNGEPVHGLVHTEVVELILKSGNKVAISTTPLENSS

[8] = biological target: T5, GST-KIAA1526 PDZ domain 1 (Homo sapiens (Human)), Q9P202
T5 chain: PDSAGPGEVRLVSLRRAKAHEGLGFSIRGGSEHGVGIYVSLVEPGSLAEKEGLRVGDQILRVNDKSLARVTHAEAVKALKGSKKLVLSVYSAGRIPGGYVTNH

[9] = biological target: GST-KIAA1634 PDZ domain 5 (Homo sapiens (Human)), Q5TCQ9
[10] = biological target: GST-KIAA807 [GST: P08515]
[11] = biological target: T6, GST-LIM Mystique PDZ domain 1 (Homo sapiens (Human)), Q96JY6
T6 chain: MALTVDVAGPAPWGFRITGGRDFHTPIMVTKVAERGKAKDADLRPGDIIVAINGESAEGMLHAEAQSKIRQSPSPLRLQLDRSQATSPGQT

[12] = biological target: T7, GST-LIM-RIL PDZ domain 1 (Homo sapiens (Human)), P50479
T7 chain: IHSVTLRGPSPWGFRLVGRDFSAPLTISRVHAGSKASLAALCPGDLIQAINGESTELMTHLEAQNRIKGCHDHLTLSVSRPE

[13] = biological target: T8, GST-Outer Membrane PDZ domain 1 (Homo sapiens (Human)), P57105
T8 chain: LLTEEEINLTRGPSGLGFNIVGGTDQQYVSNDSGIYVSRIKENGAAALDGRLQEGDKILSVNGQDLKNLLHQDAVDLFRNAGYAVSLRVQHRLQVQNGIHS

[14] = biological target: T9, GST-PTPL1 PDZ domain 2 (Homo sapiens (Human)), Q12923
T9 chain: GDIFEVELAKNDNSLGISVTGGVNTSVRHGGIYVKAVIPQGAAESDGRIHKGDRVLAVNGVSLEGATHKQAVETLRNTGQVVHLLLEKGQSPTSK

[15] = biological target: T10, GST-Syntrophin gamma 1 PDZ domain 1 (Homo sapiens (Human)), Q9NSN8
T10 chain: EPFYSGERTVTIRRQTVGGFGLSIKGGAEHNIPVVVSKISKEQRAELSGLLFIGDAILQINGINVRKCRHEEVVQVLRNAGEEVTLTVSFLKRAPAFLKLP

[16] = biological target: T11, GST-APXL-1 PDZ domain 1 (Homo sapiens (Human)), Q13796
T11 chain: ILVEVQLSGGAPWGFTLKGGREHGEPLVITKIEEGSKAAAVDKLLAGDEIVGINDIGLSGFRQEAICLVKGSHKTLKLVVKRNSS

[17] = biological target: T12, GST-HEMBA 1003117 PDZ domain 1 (Homo sapiens (Human)), Q96JH8
T12 chain: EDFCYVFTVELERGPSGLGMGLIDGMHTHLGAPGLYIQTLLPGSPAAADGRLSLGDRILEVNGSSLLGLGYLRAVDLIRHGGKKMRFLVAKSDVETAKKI

[18] = biological target: T13, GST-MINT1 PDZ domain 2 (Mus musculus (Mouse)), B2RUJ5
T13 chain: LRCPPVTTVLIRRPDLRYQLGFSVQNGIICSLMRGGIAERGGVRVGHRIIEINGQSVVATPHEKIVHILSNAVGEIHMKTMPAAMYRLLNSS

[19] = biological target: T14, GST-MINT1 PDZ domains 1, 2, Q02410
T14 chain: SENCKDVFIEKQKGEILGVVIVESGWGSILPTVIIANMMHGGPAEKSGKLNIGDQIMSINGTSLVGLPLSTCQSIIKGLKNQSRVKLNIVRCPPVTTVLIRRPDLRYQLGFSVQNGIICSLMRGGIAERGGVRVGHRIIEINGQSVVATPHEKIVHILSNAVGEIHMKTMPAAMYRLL

[20] = biological target: T15, GST-KIAA0382 PDZ domain 1 (Canis lupus familiaris (Dog) (Canis familiaris)), A0A8I3
T15 chain: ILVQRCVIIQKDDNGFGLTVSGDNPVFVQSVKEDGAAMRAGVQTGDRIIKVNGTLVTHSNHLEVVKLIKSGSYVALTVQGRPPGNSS
Note: key of the grades not given here.

Chain of GST-Atrophin-1 Interacting Protein PDZ domain 5 (Rattus norvegicus (Rat)), O88382 (O88382 1128-1225): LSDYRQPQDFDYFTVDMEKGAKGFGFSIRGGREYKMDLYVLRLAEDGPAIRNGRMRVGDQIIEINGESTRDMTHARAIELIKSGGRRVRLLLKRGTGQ
Chain of GST-KIAA1634 PDZ domain 5 (Homo sapiens (Human)), Q5TCQ9 (Q5TCQ9 other isoform, or with tags, fused parts or gaps): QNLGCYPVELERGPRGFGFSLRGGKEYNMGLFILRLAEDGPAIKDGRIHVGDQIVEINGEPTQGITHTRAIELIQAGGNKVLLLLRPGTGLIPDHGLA
Chain of GST-KIAA807 [GST: P08515] (P08515 whole entry, the tested form may be a part): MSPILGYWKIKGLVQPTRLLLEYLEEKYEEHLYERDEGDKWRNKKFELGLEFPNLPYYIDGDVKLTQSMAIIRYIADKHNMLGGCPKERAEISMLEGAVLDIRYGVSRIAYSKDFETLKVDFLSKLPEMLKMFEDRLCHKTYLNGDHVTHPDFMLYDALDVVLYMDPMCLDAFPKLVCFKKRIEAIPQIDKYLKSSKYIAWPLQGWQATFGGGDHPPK
Chain of GST-BAI-1 Associated Protein PDZ domain 6 (Homo sapiens (Human)), Q96QZ7 (Q96QZ7 1143-1233): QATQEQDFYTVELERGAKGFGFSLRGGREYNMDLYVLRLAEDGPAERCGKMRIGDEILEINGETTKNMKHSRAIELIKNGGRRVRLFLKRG
Chain of GST-Atrophin-1 Interacting Protein PDZ domain 3 (Rattus norvegicus (Rat)), O88382 (O88382 774-865, tags or fused parts left off): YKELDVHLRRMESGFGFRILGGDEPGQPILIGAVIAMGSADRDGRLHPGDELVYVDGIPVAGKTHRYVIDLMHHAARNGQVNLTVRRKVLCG

Binder | Classification [1] [A450 class] | Classification [2] [A450 class] | Classification [3] [A450 class] | Classification [4] [A450 class] | Classification [5] [A450 class] | Classification [6] [A450 class] | Classification [7] [A450 class] | Classification [8] [A450 class] | Classification [9] [A450 class] | Classification [10] [A450 class] | Classification [11] [A450 class] | Classification [12] [A450 class] | Classification [13] [A450 class] | Classification [14] [A450 class] | Classification [15] [A450 class] | Classification [16] [A450 class] | Classification [17] [A450 class] | Classification [18] [A450 class] | Classification [19] [A450 class] | Classification [20] [A450 class]
QISPGGLEPPSEKHFRETEV (modifications not checked) [TAX] | 1 | 1 | 3 | 1 | 1 | 1 | 5 | 3 | 1 | 5 | 1 | 1 | 5 | 2 | 5 | – | – | – | – | –
ELLQFCRTPNPALKNGQYWV (modifications not checked) [CSPG4 (chondroitin sulfae proteoglycan 4, melanoma-associated)] | 5 | 2 | 2 | 4 | – | 3 | 1 | – | 2 | 1 | 2 | 2 | 1 | – | – | 3 | 5 | 5 | 5 | –
AWDDSARAAGGQGLHVTAL (modifications not checked) [LPAP] | – | – | 2 | – | 4 | – | 5 | 1 | – | 5 | – | – | – | 1 | – | 1 | 1 | 1 | 1 | 5
VGTLLLERVIFPSVKIATLV (modifications not checked) [AdenoE4 typ9] | – | 4 | – | 1 | 1 | – | 3 | – | – | 4 | – | – | 5 | 3 | – | – | 3 | 2 | 2 | 1
VPGALDYAAFSSALYGESDL (modifications not checked) [a-actinin 2] | 2 | – | 5 | 5 | – | 1 | 5 | 1 | 5 | 5 | 5 | 5 | 1 | 1 | 1 | 5 | – | 1 | 1 | –
PIPAGGCTFSGIFPTLTSPL (modifications not checked) [KIA 1481] | – | – | – | 2 | 2 | – | 5 | 2 | 1 | 5 | – | – | – | – | – | 5 | – | 3 | 3 | 5
KTMPAAMYRLLTAQEQPVYI (modifications not checked) [MINT-1] | 1 | – | – | – | – | – | 5 | – | – | 4 | – | – | – | – | – | – | 3 | – | 5 | 1
ILNSIQVMRAQMNQIQSVEV (modifications not checked) [ephrin B2] | 2 | 1 | 2 | 2 | 2 | 2 | 2 | 3 | – | 2 | 1 | 2 | – | 2 | 2 | 1 | 2 | 3 | 2 | 2
PYSELNYETSHYPASPDSWV (modifications not checked) [catenin - delta 2] | 2 | 1 | 5 | – | – | – | 3 | 2 | 3 | 4 | 5 | 2 | 5 | 5 | 1 | – | 1 | 3 | 5 | –
TQGFPGPATWRRISSLESEV (modifications not checked) [NMDA Glutamate Receptor 2C (cysteine-free)] | 3 | 2 | 5 | 2 | 2 | 2 | 5 | 3 | 1 | 4 | 4 | 5 | 5 | 5 | 4 | 1 | – | 1 | 1 | 1
HDFRRAFKKILARGDRKRIV (modifications not checked) [alpha-2A Adrenergic receptor] | 2 | – | 1 | 3 | – | 2 | 1 | 4 | – | – | 1 | – | – | 2 | 2 | 1 | 1 | – | – | –
